The record followed here is PMC4763257, “A replaceable liposomal aptamer for the ultrasensitive and rapid detection of biotin”.

The data set has as its target streptavidin (UniProt P22629 25-183). The experiment in a line: plate binding assay, liposome SRB fluorescence; at least 10-fold over aptamer-free liposomes; displaced by biotin; Streptavidin (10 ug/ml) coated plate, blocked with 1% BSA and 0.01 mg/ml salmon sperm DNA in TBS; 80 ul liposomal aptamer 1 h at RT; washes in TBS-sucrose; pH and salt not given. Conditions: protein: commercial; chain copies: 4; label: SRB-encapsulating liposome.

streptavidin, sequence (P22629 25-183): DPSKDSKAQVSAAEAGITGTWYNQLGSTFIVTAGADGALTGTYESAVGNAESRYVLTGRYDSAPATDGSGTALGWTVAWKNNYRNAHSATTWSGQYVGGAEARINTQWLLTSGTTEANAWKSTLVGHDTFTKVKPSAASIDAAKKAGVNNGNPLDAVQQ

For the molecule ATTGACCGCTGTGTGACGCAACACTCAAT (structured_DNA, 3'-TEG-cholesterol) [ST-21 liposomal aptamer], the binding result is “binds”.
For ATTGACCTCTGTGTGACGCAACACTCAAT (structured_DNA, 3'-TEG-cholesterol) [ST-21M liposomal aptamer], the binding result is on record as “binds”.
